Laboratory results: patent US20240166738A1 (priority 2021, published 2024)

Molecular target: GST-TMEM106B (truncated, comprising amino acids 122-210 of SEQ ID NO:1) (Homo sapiens, UniProt Q9NUM4)
Experiment: Pre-mix epitope binning of anti-TMEM106B antibodies (Carterra / Lake Pharma)
Assay type: binding
Set-up: key to epitope bin: Bin 1: competes for binding to the same or overlapping TMEM106B region as the TM1, TM17, TM22, TM26, TM79, and/or TM82 antibodies; Bin 2: competes for binding to the same or overlapping TMEM106B region as the TM3, TM9, TM10, TM11, TM12, TM13, TM18, TM19, TM21, TM24, TM25, TM32, TM35, TM37, TM42, TM45, TM48, TM54, TM59, TM60, TM61, and/or TM76 antibodies; Bin 3: competes for binding to the same or overlapping TMEM106B region as the TM7, TM15, TM83, and/or TM84 antibodies; Bin 4: competes for binding to the same or overlapping TMEM106B region as the TMS, TM28, TM29, TM30, TM63, TM64, TM72, TM78, TM80, TM86, and/or TM88 antibodies; Bin 5: does not bind to a truncated TMEM106B comprising amino acids 122-210 of SEQ ID NO:1
Conditions: for epitope bin: competition for binding to truncated GST-TMEM106B (amino acids 122-210); for Binding Community/Bin: epitope bin number, pre-mix binning on truncated GST-TMEM106B
Procedure: (§1) Monoclonal anti-TMEM106B antibodies were immobilized to a CMD 50M chip (Xantec # SPMXCMD5OM lot# SCCMD50M0416). The running buffer was HBS-EP+ with 1 mg/mL BSA. The GST-TMEM106B (truncated, comprising amino acids 122-210 of SEQ ID NO:1) antigen was prepared at a final concentration of 55 nM (corresponding to 2 μg/mL) and mixed with the competing analyte anti-TMEM106B antibodies at a final concentration of 333 nM (corresponding to 50 μg/mL) or compared to a buffer control. Samples were injected for 5 minutes over the array and regenerated after every cycle with 1 minute of two parts Pierce IgG-Elution buffer (ThermoFisher Cat#21004) and 1 part of 10 mM Glycine, pH 2.0 (Carterra).
Anti-TMEM106B antibodies sorted into various competing bins and resulting binning profiles. […] Antibodies within Bin 3 or Bin 4 partially block Bin 2 antibodies.
as §1, with “SPMXCMD50M” for “SPMXCMD5OM”, “lmg/ml” for “1 mg/mL”, “(truncated)” for “(truncated, comprising amino acids 122-210 of SEQ ID NO:1)”, “μg/ml)” for “μg/mL)”

GST-TMEM106B (truncated, comprising amino acids 122-210 of SEQ ID NO:1), sequence (Q9NUM4 122-210): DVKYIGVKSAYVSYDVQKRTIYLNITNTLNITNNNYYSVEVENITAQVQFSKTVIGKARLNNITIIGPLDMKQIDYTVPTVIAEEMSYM

| Molecule | epitope bin | Binding Community/Bin |
| --- | --- | --- |
| TM-17: anti-TMEM106B monoclonal antibody; CDR-H1-3 SEQ ID NO: 17, 51, 94; CDR-L1-3 SEQ ID NO: 132, 172, 196 (antibody, V domains shown) VH: QVQLQQSGAELIRPGTSVKVSCKASGYAFTDYLIEWVKQRPGQGLEWIGVINPGSGGTNYNEKFKGKAKLTADKSSSTAYMQLSSLTSEDSAVYFCVRSSYGVYVAYPMDYWGQGTSVTVSS VL: DIQMTQSPSSLSASLGERVSLTCRASQDIGSNLNWLQQEPDGTIKRLIYATSSLDSGVPKRFSGSRSGSDYSLTISSLESEDFVDYYCLQYASSPRTFGGGTKLEIK | Bin 1 | 1 |
| TM-24: anti-TMEM106B monoclonal antibody; CDR-H1-3 SEQ ID NO: 12, 45, 88; CDR-L1-3 SEQ ID NO: 140, 170, 204 (antibody, V domains shown) VH: QVQLKQSGPGQVQPSQSLSITCTVSGFSLSDYGVHWVRQSPGKGLEWLGVIWNNGNTDYNAAFISRLSINKDNSKSQVFFKMTSLQADDTAIYYCVRSLRPLHFDYWGQGTTVTVSS VL: DIVMTQSPSSLTMSVGQKVTMNCKSSQSLLNSNNQQNYLAWYQQKPGQSPKLLVYFASIRESGVPDRFIGSGSGTDFTLTINSVQAEDLADYFCQQHYSTPFTFGSGTKLEIR | Bin 2 | 2 |
| TM-3: anti-TMEM106B monoclonal antibody; CDR-H1-3 SEQ ID NO: 4, 37, 80; CDR-L1-3 SEQ ID NO: 122, 162, 186 (antibody, V domains shown) VH: QVTLKESGPGIVQPSQTLSLTCSFSGFSLNTLGRGVGWIRQPSGKGLEWLAKIWWNDDKFYYPALKSRLTISKDTSKNQIFLKIANVDTADSATYYCARIAGGTGAAYWGQGTTLTVSS VL: DIVMTQAAFSNPVTLGTSASISCRSSKSLLHSNGITYLYWYLQKPGQSPQLLISQMSSLASGVPDRFSSGGSGTDFTLRISRVEAEDVGVFYCAQNLELPWTFGGGTKLELK | Bin 2 | 2 |
| TM-26: anti-TMEM106B monoclonal antibody; CDR-H1-3 SEQ ID NO: 2, 56, 99; CDR-L1-3 SEQ ID NO: 139, 176, 203 (antibody, V domains shown) VH: QVQLQQSGAELIRPGTSVKVSCKASGYAFTNYLIEWVKKRPGQGLEWIGVINPGSGITNYNEKFKGKATLTADKSSSTAYMQLSSLTSEDSAVYFCARSDFITTVVADYWGQGTTVTVSS VL: DIVVTQTPLSLPVSFGDQVSISCRSSQSLTNYYGNTYLSWYLHKPGQSPQLLIYGISNRFSGVPDRFSGSGSGTDFTLKISTIKPEDLGMYYCLQGTHQPRTFGGGTKLEIK | Bin 1 | 1 |
| TM-82: anti-TMEM106B monoclonal antibody; VH SEQ ID NO: 487, VL SEQ ID NO: 522 (antibody, V domains shown, Variable Heavy Chain -- TM-82; Variable Light Chain -- TM-82) VH: QVQLQQSGAELVRPGTSVRVSCKASGYAFTNYLIEWIKQRPGQGLEWIGVINPGSGITDYSEKFKGKARLTADKSSSTAYMQLSSLTSDDSAVYFCTRSPFITTVVADYWGQGTTVTVSS VL: DVVVTQTPLSLPVSFGDQVSISCRSSQSLANTYGNTYLSWYLHTPGQSPQLLIFGISNRFSGVPDRFSGSGSGTDFTLKISTIKPEDLGVYYCLQGTHPPRTFGGGTKLEMK | Bin 1 | 1 |
| TM-25: anti-TMEM106B monoclonal antibody; CDR-H1-3 SEQ ID NO: 10, 57, 100; CDR-L1-3 SEQ ID NO: 137, 168, 205 (antibody, V domains shown) VH: EVQLVESGGDLVKPGGSLRLSCAASGFTFSGYGMSWIRQTPDKRLEWVATISSGGRYTVYPDSVKGRFTMSRDNVKNTLYLQMSSLKSEDTALYYCARDNFYSYAMDYWGLGTSVTVSA VL: DIVMTQAAFSNPVTLGTSASISCRSSKSLLHSNGITYLFWYLQKPGQSPQLLIYQMSNLASGVPDRFSSSGSGTDFTLRISRVEAEDVGVYYCAQNLELWTFGGGTKLEIK | Bin 2 | 2 |
| TM-79: anti-TMEM106B monoclonal antibody; VH SEQ ID NO: 484, VL SEQ ID NO: 519 (antibody, V domains shown, Variable Heavy Chain -- TM-79; Variable Light Chain -- TM-79) VH: EVQLQQSGPELVKPGASVKMSCKASGYTFTNYVMHWLKQKPGQGLEWIAHITPHNDGTKYNEKFKGKATLTSDRSSSTAYMELNSLTSEDSAIYYCARSGQFGRGDYFHYWGQGTTVTVSS VL: DIVLTQSPASLAVSLGQRATISCRASKSVSTSGSIYIHWYQQKPGQPPKLLIYLTSNLESGVPARFSGSGSGTDFTLNIHPVEEEDAATYYCQHSGELPWTFGGGARLEIK | Bin 1 | 1 |
| TM-1: anti-TMEM106B monoclonal antibody; CDR-H1-3 SEQ ID NO: 2, 35, 78; CDR-L1-3 SEQ ID NO: 120, 160, 184 (antibody, V domains shown) VH: QVQLQQSGAELVRPGTSVKVSCKASGYAFTNYLIEWVKQRPGQGLEWIGVINPGSGGTKYNEKLKGKATLTADKSSSTAYMQLSSLTSVDSAVYFCARRGYTIYDFYAMDYWGQGTSVTVSS VL: DVLMTQTPLSLPVSLGDHASISCRSSQSIVYNNGNTYLEWYLQKPGQSPKLLIYKVSNRFSGVPDRFSGSGSGTDFTLKISRVEAEDLGVYYCFQVSHVPFTFGSGTKLEIK | Bin 1 | 1 |
| TM-32: anti-TMEM106B monoclonal antibody; CDR-H1-3 SEQ ID NO: 13, 63, 106; CDR-L1-3 SEQ ID NO: 145, 160, 200 (antibody, V domains shown) VH: EVQLQQSGAELVRPGASVRLSCIASGFNIKDYYMYWVKQRPEQGLEWIGRIDPEDGDTEYVPKFQGKATMTADTSSNTAYLQLSSLTSEDIGVYYCTTRTWDLYYAVDNWGQGTSVTVSS VL: DVLMTQTPLSLPVSLGDQASISCRSSQNIVHSNGNTYLEWYLQKPGQSPKLLIDKVSNRFSGVPDRFSGSGSGTDFTLKISRVEAEDLGIYYCFQGSHVPFTFGSGTKLEIK | Bin 2 | 2 |
| TM-48: anti-TMEM106B monoclonal antibody; CDR-H1-3 SEQ ID NO: 32, 74, 116; CDR-L1-3 SEQ ID NO: 155, 160, 218 (antibody, V domains shown) VH: QVQLQQSGPELVKPGASVKLSCKASGYTFTSYDINWVKQRPGQGLEWIGWIYPRDGNTQYIEKLKGKATLTVDTSSSTAYMELHSLTSEDSAVYFCARWIFYAMDYWGQGTSVTVSS VL: DVLMTQTPLSLPVSLGNQASISCRSSQSIVHGNGNTYLEWYLQKPGQSPKLLIYKVSNRFSGVPDRFSGSGSGTDFTLKISRVEAEDLGVYYCFQGSHLPYTFGGGTKLEIK | Bin 2 | 2 |
| TM-54: anti-TMEM106B monoclonal antibody; VH SEQ ID NO: 464, VL SEQ ID NO: 500 (antibody, V domains shown, Variable Heavy Chain -- TM-54; Variable Light Chain -- TM-54) VH: QVQMQQSGPVLVKPGASVTLSCKASGYTFTTYDLNWVKQRPGQGLEWIGWIYPRGGSTEYNEKFKGKATLTVDTSSSTAYMELHSLTSEDSAVYFCAKYSIYAMDYWGQGTSVTVSS VL: DVLMTQTPLSLPVSLGDQASISCRSSQSIVHGNGNTYLEWYLQKPGQSPKLLIYKVSNRFSGVPDRFSGSGSGTDFTLKISRVEAEDLGVYYCFQGSHVPWTFGGGTKLEMK | Bin 2 | 2 |
| TM-35: anti-TMEM106B monoclonal antibody; CDR-H1-3 SEQ ID NO: 24, 66, 109; CDR-L1-3 SEQ ID NO: 148, 160, 194 (antibody, V domains shown) VH: QVQLQQSGPELVRPGTSVKISCKAPGYTFTRHWMQWVRQRPGQGLEWIGEILPGSNNIYYNEKVKGKATLTVDTSSSTSYMQLSSLTSEDSAVYFCARSLYDYDGVFAYWGQGTLVTVSA VL: DVLMTQIPLSLPVSLGDQASISCRSSQSIVHRNGNTYLEWYLQKPGQSPKLLIYKVSNRFSGVPDRFSGSGSGTDFTLKISRVEAEDLGVYYCFQGSHVPYTFGGGTKLEIK | Bin 2 | 2 |
